This note sets out measurements from paper PMC10269885.

This assay deals with PML protein (UniProt P29590). In words: co-immunoprecipitation (anti-HA IP, anti-PML immunoblot, densitometry). The following applies: HepaRG cells transfected with 10 μg plasmid; lysates prepared 48 h posttransfection; two independent experiments; parent: est. 7.8; read off a plot. A general note: In western blotting, separated proteins are transferred to a membrane and probed.
Chain of UniProt P29590 (P29590 whole entry): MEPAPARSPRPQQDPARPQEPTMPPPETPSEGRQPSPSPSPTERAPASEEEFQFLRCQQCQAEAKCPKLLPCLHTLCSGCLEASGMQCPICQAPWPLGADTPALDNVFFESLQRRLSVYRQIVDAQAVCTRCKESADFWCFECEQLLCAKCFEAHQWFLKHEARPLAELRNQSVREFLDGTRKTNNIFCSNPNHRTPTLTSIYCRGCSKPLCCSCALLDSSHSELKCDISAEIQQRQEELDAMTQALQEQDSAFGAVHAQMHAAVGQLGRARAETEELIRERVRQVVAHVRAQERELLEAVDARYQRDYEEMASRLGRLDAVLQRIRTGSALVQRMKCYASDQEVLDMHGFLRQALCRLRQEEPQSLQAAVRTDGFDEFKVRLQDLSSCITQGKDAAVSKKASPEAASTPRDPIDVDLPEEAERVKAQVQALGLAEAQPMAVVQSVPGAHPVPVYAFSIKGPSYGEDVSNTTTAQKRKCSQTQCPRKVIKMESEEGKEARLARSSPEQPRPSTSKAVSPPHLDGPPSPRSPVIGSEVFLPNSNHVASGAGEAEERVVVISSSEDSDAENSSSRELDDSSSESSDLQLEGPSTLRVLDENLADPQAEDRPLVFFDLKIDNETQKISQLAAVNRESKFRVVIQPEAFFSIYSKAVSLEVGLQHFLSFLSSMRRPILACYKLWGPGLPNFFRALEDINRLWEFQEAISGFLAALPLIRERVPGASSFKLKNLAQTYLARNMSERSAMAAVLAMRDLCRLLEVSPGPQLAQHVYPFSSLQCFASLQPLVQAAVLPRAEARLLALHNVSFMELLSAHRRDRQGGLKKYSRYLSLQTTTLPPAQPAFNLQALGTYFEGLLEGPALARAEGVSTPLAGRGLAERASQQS

“HA-tagged wild-type HBV core protein (pCore-HA wt) K7R; K96R”: the response (% input of PML co-IP) worked out at 0.1.
